The values below come from US20210317223A1 (DRAGONFLY THERAPEUTICS, published 2021).

One experiment addresses T1, CD16-F158V (UniProt P08637 17-254).
T1 construct: whole, on cells; It is probably the mature protein, so it may not match the position on the precursor entry; The KHYG-1 cells also express NKG2D
In words: flow cytometry on KHYG-1 cells transduced with CD16-F158V (the cells also express NKG2D), anti-human IgG secondary antibody, MFI. The method, then:
(§1) The KHYG-1 human NK cell line was used to assess NKG2D binding of TriNKET NKG2D-binding-F4-TriNKET-BCMA. KHYG-1 cells transduced to express CD16-F158V were used to investigate the contribution of Fc CD16 binding. TriNKETs were diluted, and were incubated with KHYG-1 cells. Binding of the TriNKET was detected using a fluorophore conjugated anti-human IgG secondary antibody. Cells were analyzed by flow cytometry and Median Fluorescence Intensity (“MFI”) reported.
(In general: A flow cytometer gives signals particle by particle.)

The target in a further experiment is T2, NKG2D (human, UniProt P26718 1-216).
T2 construct: whole, on cells; also called NKG2D receptor
T2 sequence (looked up): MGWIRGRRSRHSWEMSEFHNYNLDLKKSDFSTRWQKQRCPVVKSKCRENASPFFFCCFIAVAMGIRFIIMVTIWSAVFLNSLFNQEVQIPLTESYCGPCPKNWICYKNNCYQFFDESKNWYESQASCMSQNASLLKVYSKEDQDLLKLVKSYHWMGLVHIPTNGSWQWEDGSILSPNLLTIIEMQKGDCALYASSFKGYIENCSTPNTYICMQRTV
As to the kind of experiment: flow cytometry on KHYG-1 parental (CD16-) cells expressing NKG2D, anti-human IgG secondary antibody, MFI. The protocol: as §1

Experiment [1] deals with T3, B-cell maturation antigen (BCMA) (human, UniProt Q02223 1-184).
T3 construct: This is endogenous BCMA on human myeloma cell lines (KMS12-PE low, MM.1R high expression); the whole entry is used; also called surface BCMA
T3 sequence: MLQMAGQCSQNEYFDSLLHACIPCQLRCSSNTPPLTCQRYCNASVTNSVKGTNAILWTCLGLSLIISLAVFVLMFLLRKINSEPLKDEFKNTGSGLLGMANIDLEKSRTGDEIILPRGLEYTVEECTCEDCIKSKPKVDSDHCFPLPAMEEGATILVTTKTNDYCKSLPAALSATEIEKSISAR
As to the kind of experiment: flow cytometry on KMS12-PE cells, 100 ug/mL, incubation times as labelled, anti-human IgG secondary antibody. The method, then:
KMS12-PE or MM.1R cells were incubated with an anti-BCMA monoclonal antibody (MAB42), bivalent TriNKET (NKG2D-binding-F4-TriNKET-BCMA), or monovalent TriNKET (A49-DB-TriNKET-BCMA). A49-DB-TriNKET-BCMA is a TriNKET in which the first antigen-binding site comprises an Fab that binds NKG2D and the second antigen-binding site comprises an Fab that binds BCMA, each connected to an Fc domain, forming a bi-valent antibody (WO2018/148566).
To assess total surface BCMA, a saturating concentration of 100 μg/mL was used, whereas 100 ng/mL was selected to investigate sub-saturation surface stabilization. Each sample was divided into thirds, with an aliquot each placed on ice for 20 minutes, at 37° C. for 2 hours or 37° C. for 24 hours. After the incubation period cells were washed and bound TriNKET was detected using an anti-human IgG secondary antibody. After staining the cells were fixed and stored at 4° C., all samples were analyzed at the end of the study.

T1 sequence (P08637 17-254 F176V): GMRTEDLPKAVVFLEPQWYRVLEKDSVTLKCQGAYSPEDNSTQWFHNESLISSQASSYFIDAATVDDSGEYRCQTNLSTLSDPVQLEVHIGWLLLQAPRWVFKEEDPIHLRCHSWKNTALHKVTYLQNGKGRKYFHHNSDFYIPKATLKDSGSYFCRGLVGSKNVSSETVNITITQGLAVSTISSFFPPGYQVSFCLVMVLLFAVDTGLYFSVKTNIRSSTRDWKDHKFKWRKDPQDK

B1: anti-BCMA monoclonal antibody MAB42 (antibody, V domains shown)
VH: EVQLLESGGGLVQPGGSLRLSCAASGFTFSDNAMGWVRQAPGKGLEWVSAISGPGSSTYYADSVKGRFTISRDNSKNTLYLQMNSLRAEDTAVYYCAKVLGWFDYWGQGTLVTVSS
VL: EIVLTQSPGTLSLSPGERATLSCRASQSVSDEYLSWYQQKPGQAPRLLIHSASTRATGIPDRFSGSGSGTDFTLAISRLEPEDFAVYYCQQYGYPPDFTFGQGTKVEIK
notes: also called anti-BCMA mAb; BCMA mAb
On to B1, for which the binding result with CD16-F158V is reported as “binds”; with NKG2D it was “no binding (tested: 100 ug/ml)”; in experiment [1] it was “binds”.

B2: NKG2D-binding-F4-TriNKET-BCMA (bispecific antibody, human IgG1, kappa)
heavy 1: EVQLLESGGGLVQPGGSLRLSCAASGFTFSDNAMGWVRQAPGKGLEWVSAISGPGSSTYYADSVKGRFTISRDNSKNTLYLQMNSLRAEDTAVYYCAKVLGWFDYWGQGTLVTVSSASTKGPSVFPLAPSSKSTSGGTAALGCLVKDYFPEPVTVSWNSGALTSGVHTFPAVLQSSGLYSLSSVVTVPSSSLGTQTYICNVNHKPSNTKVDKKVEPKSCDKTHTCPPCPAPELLGGPSVFLFPPKPKDTLMISRTPEVTCVVVDVSHEDPEVKFNWYVDGVEVHNAKTKPREEQYNSTYRVVSVLTVLHQDWLNGKEYKCKVSNKALPAPIEKTISKAKGQPREPRVYTLPPCRDELTKNQVSLTCLVKGFYPSDIAVEWESNGQPENNYKTTPPVLVSDGSFTLYSKLTVDKSRWQQGNVFSCSVMHEALHNHYTQKSLSLSPGSGSGGGGSDIQMTQSPSSVSASVGDRVTITCRASQGISSWLAWYQQKPGKAPKLLIYAASSLQSGVPSRFSGSGSGTDFTLTISSLQPEDFATYYCQQGVSFPRTFGCGTKVEIKGGGGSGGGGSGGGGSGGGGSEVQLVESGGGLVKPGGSLRLSCAASGFTFSSYSMNWVRQAPGKCLEWVSSISSSSSYIYYADSVKGRFTISRDNAKNSLYLQMNSLRAEDTAVYYCARGAPMGAAAGWFDPWGQGTLVTVSS
heavy 2: EVQLLESGGGLVQPGGSLRLSCAASGFTFSDNAMGWVRQAPGKGLEWVSAISGPGSSTYYADSVKGRFTISRDNSKNTLYLQMNSLRAEDTAVYYCAKVLGWFDYWGQGTLVTVSSASTKGPSVFPLAPSSKSTSGGTAALGCLVKDYFPEPVTVSWNSGALTSGVHTFPAVLQSSGLYSLSSVVTVPSSSLGTQTYICNVNHKPSNTKVDKKVEPKSCDKTHTCPPCPAPELLGGPSVFLFPPKPKDTLMISRTPEVTCVVVDVSHEDPEVKFNWYVDGVEVHNAKTKPREEQYNSTYRVVSVLTVLHQDWLNGKEYKCKVSNKALPAPIEKTISKAKGQPREPQVCTLPPSRDELTENQVSLTCLVKGFYPSDIAVEWESNGQPENNYKTTPPVLDSDGSFFLYSWLTVDKSRWQQGNVFSCSVMHEALHNHYTQKSLSLSPG
light: EIVLTQSPGTLSLSPGERATLSCRASQSVSDEYLSWYQQKPGQAPRLLIHSASTRATGIPDRFSGSGSGTDFTLAISRLEPEDFAVYYCQQYGYPPDFTFGQGTKVEIKRTVAAPSVFIFPPSDEQLKSGTASVVCLLNNFYPREAKVQWKVDNALQSGNSQESVTEQDSKDSTYSLSSTLTLSKADYEKHKVYACEVTHQGLSSPVTKSFNRGEC
notes: An A49 anti-NKG2D scFv sits at the C-terminus of one Fc chain; also called A49-F4-TriNKET-BCMA; NKG2D-F4-TriNKET-BCMA
B2: the binding result (with CD16-F158V; in experiment [1]) was “binds” each time.
